Source: IntAct's records for PubMed 26344566

Target: PEX5, P50542-3

For “Serine-protein kinase ATM (Homo sapiens), Q13315 R3047Q”, the “effect of a mutation on the interaction” value was “decreasing interaction strength”.
